Data on one molecule can be found in patent publication US20260217835A1.

This assay has as its target GCH065-G1T6v2/L0011-kT0. Put plainly: CIEX peak area ratio; coexpression from mRNAs (heavy 1/light/heavy 2 = 1/4/1) in Expi293 cells.

GCH065-G1T6v2/L0011-kT0, sequence (heavy, as listed by the source): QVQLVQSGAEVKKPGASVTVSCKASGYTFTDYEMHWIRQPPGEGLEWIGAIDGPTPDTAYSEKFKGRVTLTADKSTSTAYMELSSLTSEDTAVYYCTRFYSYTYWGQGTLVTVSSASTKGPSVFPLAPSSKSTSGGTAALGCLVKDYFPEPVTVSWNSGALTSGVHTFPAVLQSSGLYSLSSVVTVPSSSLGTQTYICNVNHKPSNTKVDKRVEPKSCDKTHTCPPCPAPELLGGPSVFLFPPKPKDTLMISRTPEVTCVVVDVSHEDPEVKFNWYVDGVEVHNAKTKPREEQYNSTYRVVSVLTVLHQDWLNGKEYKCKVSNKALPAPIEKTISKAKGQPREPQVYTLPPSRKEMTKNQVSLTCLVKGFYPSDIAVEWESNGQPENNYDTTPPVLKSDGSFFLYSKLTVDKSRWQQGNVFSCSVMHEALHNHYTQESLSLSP

B1: TR01H113-G1T6/L0011-kT0 (antibody, human IgG1, kappa, V domains shown)
VH: QVQLVESGGGVVQPGGSLRLSCAASGFTFSNAWMHWVRQAPGKGLEWVAQIKDKSQNYATYVAESVKGRFTISRADSKNSIYLQMNSLKTEDTAVYYCRYVHYAAGYGVDIWGQGTTVTVSS
VL: DIVMTQSPLSLPVTPGEPASISCRSSQPLVHSNRNTYLHWYQQKPGQAPRLLIYKVSNRFSGVPDRFSGSGSGTDFTLKISRVEAEDVGVYYCGQGTQVPYTFGQGTKLEIKR
Regarding B1, the Heavy chain heteromultimer (TG, T1G2, QJ, Q3J4) (%) was determined as 2.07%.
